The record followed here is patent publication US20230009161A1.

This assay has as its target recombinant human ErbB2/HER2 Fc chimera protein (R&D Systems, cat no. 1129-ER) (human) (UniProt P04626).

The term Kd denotes the concentration at which binding is half-saturated. On to “IgG1^HER2 (monoclonal anti-HER2 IgG1; Trastuzumab) (antibody)”, for which the dissociation constant Kd is 0.72 nM.
